The values that follow come from article PMC10351726 (2023).

For the test, the target named is HER2-ECD biotinylated at single site (human, UniProt P04626 23-652, biotinylated at single site). Description: SPR. Background: In SPR one partner is held on a chip, and binding of the other changes the refractive index at the surface.

B1: NanoMab-02 (NM-02) (VHH)
VHH: QVQLQESGGGSVQAGETLRLSCTASGFTFDDSDMGWYRQAPGNECELVSSISSDGSTYYADSVKGRFTISQDNAKNTVYLQMNSLKPEDTGVYYCAAEGHRYELGTCAALDYWGRGTQVTVSS
Usually Kd stands for the free concentration of one partner at which half of the binding sites on the other are occupied at equilibrium, for simple one-to-one binding. Higher therefore signals lower affinity. In the case of B1, the affinity, expressed as Kd, was 0.183 nM. This counts as sub-nanomolar.

B2: humanised NM-02 variant E (VHH)
VHH: QVQLQESGGGLVQPGGSLRLSCSASGFTFDDSDMGWYRQAPGNECELVSSISSDGSTYYADSVKGRFTISQDNSKNTLYLQMNSLRAEDTGVYYCAAEGHRYELGTCAALDYWGRGTLVTVSS
The molecule B2 displayed a Kd of 0.434 nM.
